# Measured values as given in article PMC12622487.
# Target: Cys32 (UniProt position 32, FSATWCGPCKM)
# Conditions: Reduced (free thiol) form is presumed; not explicitly stated for the pKa determination.
substance,measurement,value
"Thioredoxin-1 (native recombinant human TRX, rhTRX) (Homo sapiens)",pKa,6.3
